# According to the supplement of paper PMC6757056:
# ± gives the standard deviation of the averaged measurements.
# B1: library; a variant is named by its letters at N, in order (parent)
# chain: GCUGUCACCGAGAAACUGUGAAGUAUAUCUUAAACCUGGGCACUUAAAAGAUAUAUGGAGUUAGUAGUGCAACCUGCUCGGUCUGAUGAGUCCNNNNNNGGACGAAACAGC
# What was measured:
# cyclic di-GMP [1] = variants of: B1; experiment: normalized RNA/DNA level without ligand (relative to sTRSVctl = 100) (log10 (% of sTRSVctl)); HEK293T; ligand: cyclic di-GMP (c-di-GMP-II aptamer); higher = less ribozyme self-cleavage, higher mRNA level; settings: reporter: mCherry (pCS4076), ligand present: no
# Summary of the method: (§1)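 Ribozyme switch library plasmids with mCherry reporters (eGFP in certain ligand experiments) went into HEK293T cells at 4 µg per 6-well well. Where ligand was used, it was applied 1 h before transfection, and total RNA was extracted with EDTA 72 h later for reverse transcription, amplification, barcoding and sequencing. RNA level is the RNA-to-DNA read ratio normalized to a spiked-in non-cleaving sequence or to the leading sequences, then scaled and log-transformed. Scaling was ×100 with log10, the leading set comprised 25 sequences, and the cutoff was ≥100 DNA reads.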
# cyclic di-GMP [2] = variants of: B1; experiment: normalized RNA/DNA level with ligand (relative to sTRSVctl = 100) (log10 (% of sTRSVctl)); HEK293T; ligand: cyclic di-GMP (c-di-GMP-II aptamer); ligand concentration (+) RNA-Seq: 1 mM; higher = less ribozyme self-cleavage, higher mRNA level; settings: reporter: mCherry (pCS4076), ligand present: yes
# Summary of the method: as §1
Variant,normalized RNA/DNA level without ligand (log10) (cyclic di-GMP [1]),normalized RNA/DNA level with ligand (log10) (cyclic di-GMP [2])
UCCUGG,1.82 ± 0.057,1.91 ± 0.14
CAUAGG,1.688 ± 0.011,1.85 ± 0.093
CCUAGC,1.6495 ± 0.00083,1.82 ± 0.056
UGACCA,1.7585 ± 0.0012,1.88 ± 0.074
GAGCAC,1.82 ± 0.053,1.87 ± 0.077
UUUGAA,1.59 ± 0.017,1.76 ± 0.1
ACGUCU,1.55 ± 0.087,1.74 ± 0.085
UUCCGC,1.771 ± 0.0064,1.89 ± 0.084
UCUCGA,1.8 ± 0.036,1.86 ± 0.15
ACGGCA,1.648 ± 0.011,1.77 ± 0.1
CAUGCU,1.72 ± 0.056,1.84 ± 0.097
CACUCA,1.39 ± 0.1,1.62 ± 0.093
GACCCA,1.75 ± 0.02,1.85 ± 0.093
ACGACU,1.51 ± 0.085,1.73 ± 0.14
GCUGAC,1.47 ± 0.069,1.67 ± 0.1
CGGGGG,1.62 ± 0.059,1.77 ± 0.026
CUUGCA,1.66 ± 0.018,1.77 ± 0.1
AACUUC,1.714 ± 0.0074,1.82 ± 0.095
CCUACU,1.581 ± 0.011,1.76 ± 0.12
UUGUAC,1.74 ± 0.089,1.85 ± 0.18
AGAUCC,1.81 ± 0.016,1.89 ± 0.038
AGACGG,1.62 ± 0.088,1.78 ± 0.089
CAGCGU,1.701 ± 0.011,1.84 ± 0.088

Variant,normalized RNA/DNA level without ligand (log10) (cyclic di-GMP [1]),normalized RNA/DNA level with ligand (log10) (cyclic di-GMP [2])
GUGACA,1.665 ± 0.0036,1.79 ± 0.069
AAGAGC,1.59 ± 0.05,1.71 ± 0.1
GGGCAC,1.78 ± 0.042,1.89 ± 0.074
CGAUCA,1.6 ± 0.026,1.74 ± 0.12
CCUUAU,1.6 ± 0.034,1.79 ± 0.087
CCUACA,1.53 ± 0.07,1.77 ± 0.044
CUCCUG,1.78 ± 0.065,1.85 ± 0.13
UGACUU,1.68 ± 0.043,1.85 ± 0.13
AAGAGU,1.5 ± 0.035,1.71 ± 0.12
GGACCU,1.74 ± 0.07,1.85 ± 0.05
CAACUU,1.49 ± 0.093,1.69 ± 0.078
AACGGU,1.52 ± 0.049,1.77 ± 0.1
CUCGUC,1.81 ± 0.032,1.93 ± 0.098
UUUUCU,1.78 ± 0.071,1.9 ± 0.12
GUACCA,1.68 ± 0.044,1.81 ± 0.13
GUAUCC,1.73 ± 0.028,1.86 ± 0.13
GGUGUC,1.66 ± 0.019,1.8 ± 0.1
CUUUGC,1.795 ± 0.017,1.88 ± 0.11
UACUGA,1.66 ± 0.044,1.82 ± 0.11
GCGGAU,1.43 ± 0.097,1.63 ± 0.11
CAGUCU,1.52 ± 0.048,1.68 ± 0.12
CCCUCG,1.75 ± 0.0059,1.91 ± 0.097
GGCUGA,1.54 ± 0.052,1.71 ± 0.14

Variant,normalized RNA/DNA level without ligand (log10) (cyclic di-GMP [1]),normalized RNA/DNA level with ligand (log10) (cyclic di-GMP [2])
UCACGC,1.7 ± 0.045,1.84 ± 0.08
CCUGGA,1.56 ± 0.052,1.76 ± 0.069
UCCAUC,1.7 ± 0.0059,1.8 ± 0.13
GGCGUA,1.6 ± 0.017,1.74 ± 0.13
UCACAU,1.58 ± 0.048,1.78 ± 0.087
ACGUCC,1.75 ± 0.042,1.93 ± 0.12
CCCGAG,1.56 ± 0.065,1.76 ± 0.11
CCCUUC,1.729 ± 0.0068,1.86 ± 0.082
CCCAAU,1.55 ± 0.066,1.77 ± 0.11
CUGCUG,1.63 ± 0.055,1.79 ± 0.11
GAGCAU,1.83 ± 0.037,1.91 ± 0.11
GAUGAC,1.65 ± 0.019,1.82 ± 0.12
GCACGG,1.55 ± 0.053,1.66 ± 0.12
ACGCAU,1.42 ± 0.15,1.68 ± 0.075
GAGUUC,1.81 ± 0.069,1.9 ± 0.06
GAACCG,1.7241 ± 0.00012,1.81 ± 0.1
UGAUCC,1.89 ± 0.055,1.98 ± 0.075
UAUUUC,1.75 ± 0.0095,1.87 ± 0.1
UUCUAA,1.66 ± 0.025,1.8 ± 0.11
GAGUAU,1.79 ± 0.024,1.86 ± 0.099
UAUUCC,1.77 ± 0.029,1.88 ± 0.12
GACUCU,1.704 ± 0.005,1.84 ± 0.12
AGUGCU,1.67 ± 0.043,1.82 ± 0.096

Variant,normalized RNA/DNA level without ligand (log10) (cyclic di-GMP [1]),normalized RNA/DNA level with ligand (log10) (cyclic di-GMP [2])
CACCUC,1.704 ± 0.014,1.87 ± 0.098
GAUGAA,1.45 ± 0.1,1.65 ± 0.067
GCAUCG,1.59 ± 0.045,1.76 ± 0.099
UCCCCC,1.83 ± 0.088,1.92 ± 0.13
AAGUGA,1.38 ± 0.19,1.5546 ± 0.00035
AGUAUC,1.68 ± 0.022,1.81 ± 0.13
CCAAUC,1.55 ± 0.1,1.71 ± 0.1
AAAUAG,1.54 ± 0.025,1.7 ± 0.16
UUGGUU,1.7 ± 0.027,1.84 ± 0.097
CGAGAC,1.643 ± 0.0051,1.77 ± 0.16
CGAGUC,1.76 ± 0.065,1.88 ± 0.12
AGCCGU,1.58 ± 0.048,1.77 ± 0.064
GCUUUG,1.66 ± 0.03,1.83 ± 0.13
AGAGUC,1.6 ± 0.02,1.76 ± 0.097
UAUUUG,1.732 ± 0.0073,1.86 ± 0.1
GCACCC,1.66 ± 0.027,1.84 ± 0.075
UGGGAC,1.697 ± 0.01,1.84 ± 0.078
UAUUCG,1.756 ± 0.0047,1.87 ± 0.13
GAUAUC,1.6972 ± 0.0005,1.86 ± 0.12
UUGCCG,1.83 ± 0.058,1.91 ± 0.12
UAGCGU,1.59 ± 0.056,1.72 ± 0.1
GUUCGC,1.83 ± 0.062,1.92 ± 0.073
GAGACG,1.8 ± 0.045,1.83 ± 0.13

Variant,normalized RNA/DNA level without ligand (log10) (cyclic di-GMP [1]),normalized RNA/DNA level with ligand (log10) (cyclic di-GMP [2])
AUUUAC,1.733 ± 0.0013,1.88 ± 0.1
AGAGCC,1.78 ± 0.041,1.88 ± 0.12
GCCCUG,1.76 ± 0.021,1.86 ± 0.11
AGGCUC,1.78 ± 0.034,1.87 ± 0.087
CGUAGG,1.71 ± 0.033,1.82 ± 0.14
CUAGCG,1.772 ± 0.015,1.85 ± 0.18
UUCGCU,1.77 ± 0.023,1.88 ± 0.087
AAUUAU,1.67 ± 0.03,1.82 ± 0.1
AUAUCG,1.56 ± 0.022,1.75 ± 0.068
CCAUCG,1.73 ± 0.088,1.84 ± 0.1
CUACGU,1.73 ± 0.017,1.82 ± 0.081
UAAGAA,1.597 ± 0.008,1.74 ± 0.13
GCUUUC,1.58 ± 0.022,1.75 ± 0.11
GUUCAC,1.737 ± 0.013,1.87 ± 0.09
UAUCUG,1.725 ± 0.011,1.87 ± 0.089
GCAGAC,1.42 ± 0.068,1.59 ± 0.079
CUAUAU,1.64 ± 0.035,1.77 ± 0.13
AUCUUG,1.657 ± 0.0055,1.81 ± 0.093
CCCCGC,1.77 ± 0.03,1.88 ± 0.11
GGGAUU,1.66 ± 0.024,1.77 ± 0.12
CUGAUC,1.6663 ± 0.001,1.76 ± 0.13
CAAUGG,1.664 ± 0.0083,1.8 ± 0.087
UACUCA,1.77 ± 0.062,1.89 ± 0.18
